# B1: Cyclin-dependent kinases regulatory subunit wild type, P08463 (protein)
# chain: MSKSGVPRLLTASERERLEPFIDQIHYSPRYADDEYEYRHVMLPKAMLKAIPTDYFNPETGTLRILQEEEWRGLGITQSLGWEMYEVHVPEPHILLFKREKDYQMKFSQQRGG
# Settings: Schizosaccharomyces pombe (strain 972 / ATCC 24843); pH 7.5; 25 °C; Urea; Fluorescence; Tris 50 mM; whole UniProt chain shown
protein,measurement,value
B1,denaturant m value,1.63 kcal/mol/M
same,denaturant midpoint (higher = more stable),4.42 M

# Source: FireProtDB (doi:10.1006/jmbi.2000.3958)
